In patent US12472152B2, “Molecular entrapment via homopolymer self-assembly” (Northwestern University, priority 2019, dated 2025):
One block for each molecule: values may come before it.

Experiments:
[1] = Loading experiments: encapsulation efficiency during PPSU20 self-assembly (fluorescence of supernatant); type: physicochemical
Experimental: Loading experiments. For the loading of Nile red, nanogels were prepared using pure water and Nile red-containing (0.1 mg/mL) DMSO solutions of PPSU20. For the loading of water-soluble drugs, aqueous solutions of FITC (0.05 mg/mL), doxorubicin hydrochloride (1 mg/mL), dextran (1 mg/mL), albumin (various concentrations), GFP (0.2 mg/mL), RNA (0.2 mg/mL), DNA (0.2 mg/mL), and DMSO solutions of PPSU20 (25 mg/mL) were used. Typically, 100 μL of the corresponding aqueous solution were mixed stepwise (10 μL/step or 100 μL/step) with 50 μL of PPSU20 solution under vortex, then another 400 μL of water was added. After centrifugation at 16000×g for 10 min, fluorescence of the supernatant was measured and the encapsulation efficiencies were calculated.

[2] = PPSU nanogel biodistribution and toxicity after subcutaneous injection; type: in vivo; settings: mice, s.c. injection, 48 h, NIRF/IVIS
Experimental: Assessment of PPSU NBM biodistribution and toxicity: Preliminary assessment of vesicular PPSU nanogel biodistribution 48 h after subcutaneous (s.c.) injection (relevant for vaccination) was performed using near infrared fluorescence (NIRF) agent cardiogreen (ICG) as previously published by the Scott lab^1.

[3] = Solubility tests using PPSU20 crystals in water and common organic solvents; type: physicochemical; settings: in words
Excerpt: PPSU can be synthesized from complete oxidation of poly(propylene sulfide) (PPS) (14, 15), which is known for its hydrophobic—hydrophilic transition upon oxidation (16-18). However, complete oxidation of PPS had not been previously achieved, since standard oxidation of PPS generates random copolymers of poly(propylene sulfoxide)-co-poly(propylene sulfone) (19). We successfully synthesized PPSU20 (20 sulfones, FIG. 5) using an atypically high concentration of H2O2. Highly concentrated H2O2 was generated in situ upon vacuum evaporation during the oxidizing reaction. […] Given that the chemical structure of PPSU (FIG. 1a) is characterized by a positively charged backbone with negatively charged pendent oxygen atoms (20), electrostatic repulsion among oxygen atoms (21) was expected to result in weak inter- and intra-chain associations.

trypsin protease = target: T1, trypsin protease (Sus scrofa, UniProt P00761); assay: Trypsin digestion of FITC-BSA-loaded PPSU20 vesicular nanogels; type: biochemical; settings: overloaded 10 mg/mL sample; trypsin 2 μg/mL, 24 h, 37° C.
T1 construct: purchased Promega
T1 sequence (P00761 9-231): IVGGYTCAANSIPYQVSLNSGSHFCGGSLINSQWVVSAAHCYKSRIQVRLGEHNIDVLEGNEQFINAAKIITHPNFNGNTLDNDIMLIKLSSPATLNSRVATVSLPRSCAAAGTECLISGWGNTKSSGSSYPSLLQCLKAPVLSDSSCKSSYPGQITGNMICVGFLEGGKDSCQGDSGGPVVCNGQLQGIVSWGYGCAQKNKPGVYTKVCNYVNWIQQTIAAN
Experimental: Trypsin digestion of FITC-BSA-loaded PPSU20 vesicular nanogels. DMSO solutions of PPSU20 (200 μL, 25 mg/mL) were hydrated using 800 μL of aqueous FITC-BSA solutions (0, 0.1, 1.0, 10.0 mg/mL). DMSO was removed by dialysis after self-assembly. Negatively stained FITC-BSA-loaded PPSU20 vesicular nanogels were characterized by TEM. After removal of unloaded FITC-BSA by three rounds of centrifugation and resuspension in phosphate-buffered saline, FITC-BSA-loaded PPSU20 vesicular nanogels were subjected to digestion with trypsin protease (2 μg/mL; Trypsin Gold, Promega) for 24 h at 37° C., 80 rpm. Undigested FITC-BSA-loaded PPSU20 vesicular nanogels (i.e. no protease treatment) were included as a control. After 24 h incubation with trypsin, FITC fluorescence (Ex=490 nm, Em=525 nm) was quantified in triplicate using a SpectraMax M3 microplate reader (Molecular Devices). The percentage increase in FITC fluorescence (i.e., 100×(F(+)−F(−))/F(−)) after proteolysis was calculated, where F(+) is the fluorescence after protease treatment and F(−) is referred to the fluorescence in the absence of protease treatment.

[4] = PPSU20 vesicular nanogels formed with a concentration series of FITC-BSA (DLS, zeta potential, encapsulation); type: physicochemical
[5] = Adsorption of FITC-BSA by preformed PPSU20 vesicular nanogels; type: physicochemical; settings: fluorescence in 0.2 N NaOH
Experimental: PPSU20 vesicular nanogels were prepared by mixing 100 μL of water or 100 μL of aqueous FITC-BSA (1.0 mg/mL) solution with 100 μL of PPSU20 solution (25 mg/mL in DMSO) under vortex, followed by the addition of 1000 μL of water. Nanogels were collected by centrifugation and purified by 2 rounds of resuspension and centrifugation in 1000 μL of water. The preformed blank vesicular nanogels were further incubated with 100 μL of aqueous FITC-BSA (1.0 mg/mL) solution overnight, giving FITC-BSA-adsorbed nanogels after removal of free FITC-BSA by three rounds of centrifugation and resuspension in water. Blank nanogels, FITC-BSA-loaded nanogels, and FITC-BSA-adsorbed nanogels were resuspened in 1000 μL of water for fluorescence measurements or as the stocking solutions for fluorescence quantitative analysis in sodium hydroxide solution (0.2 N).

[6] = 10 μL/step, mass ratio (drug/PPSU20) 0.08
[7] = 100 μL/step, mass ratio (drug/PPSU20) 0.08
[8] = 10 μL/step, mass ratio (drug/PPSU20) 0.004
[9] = 100 μL/step, mass ratio (drug/PPSU20) 0.004

Molecule: CC1(C)C(/C=C/C=C/C=C/C=C2\N(CCCCS(=O)(=O)[O-])c3ccc4ccccc4c3C2(C)C)=[N+](CCCCS(=O)(=O)[O-])c2ccc3ccccc3c21.[Na+] [ICG]
biodistribution (organs) [2]: heart, brain and kidneys

Molecule: Albumin: FITC-labeled albumin (FITC-BSA), a model protein; Table 1 entries 5 to 8
encapsulated FITC-BSA accessible to cleavage (trypsin protease): 30-35%
protein by mass in nanogels ([4]; 10 mg/mL of protein, 3.6 mg FITC-BSA/5 mg PPSU): 72%
EE ([4]; in the presence of 10 mg/mL of protein): 45%
EE ([4]; loading of FITC-BSA at 0.1 mg/mL): approximately 100%
EE ([4]; loading of FITC-BSA at 1.0 mg/mL): approximately 100%
Encapsulation efficiency [1, 6]: >99%
Encapsulation efficiency ([1]; 10 μL/step, mass ratio (drug/PPSU20) 0.4): >99%
Encapsulation efficiency ([1]; 10 μL/step, mass ratio (drug/PPSU20) 0.8): >96%
Encapsulation efficiency ([1]; 10 μL/step, mass ratio (drug/PPSU20) 1.2): 83%
Encapsulation efficiency [1, 7]: >99%
Encapsulation efficiency ([1]; 100 μL/step, mass ratio (drug/PPSU20) 0.4): >99%
Encapsulation efficiency ([1]; 100 μL/step, mass ratio (drug/PPSU20) 0.8): >96%
Encapsulation efficiency ([1]; 100 μL/step, mass ratio (drug/PPSU20) 1.2): 80%
encapsulation capacity (w/w) ([1]; Table 1, entry 5 to 7): up to 80%
encapsulation of protein molecules from aqueous solutions ([1]; Table 1, entry 5 to 7): ~100%
EE ([1]; nanoparticles contained 20% more protein than polymer by mass (Table 1, entry 8)): Over 80%
Encapsulation efficiency ([5]; FITC-BSA-loaded vesicles, Em=518 nm): 97.8%
adsorption efficiency ([5]; preformed blank vesicles incubated with FITC-BSA overnight): 6.0%

Molecule: fluorescein isothiocyanate [FITC]
Encapsulation efficiency [1, 8]: >99%
Encapsulation efficiency [1, 9]: >99%

Further lines, results first:

Encapsulation efficiency [1, 6]: >96%
Encapsulation efficiency [1, 7]: >97%
Molecule: COc1cccc2c1C(=O)c1c(O)c3c(c(O)c1C2=O)C[C@@](O)(C(=O)CO)C[C@@H]3O[C@H]1C[C@H](N)[C@H](O)[C@H](C)O1.Cl [DOX/HCl, doxorubicin hydrochloride]

Encapsulation efficiency [1, 8]: >96%
Encapsulation efficiency [1, 9]: >98%
Molecule: CCN(CC)c1ccc2nc3c4ccccc4c(=O)cc-3oc2c1 [Nile red]

Solubility in water [3]: good water-solubility
Molecule: CS(C)(=O)=O [dimethylsulfone]

Encapsulation efficiency [1, 6]: >96%
Encapsulation efficiency [1, 7]: >96%
Molecule: Dextran
